Reference: patent US20190040138A1

Target: PD-1 antigen stably expressed on the surface of BB007 cells (UniProt Q15116)
Test: flow cytometry on BB007 cells; control, printed under the column 0 nM

Sequence of PD-1 antigen stably expressed on the surface of BB007 cells (Q15116 25-288 limits assumed): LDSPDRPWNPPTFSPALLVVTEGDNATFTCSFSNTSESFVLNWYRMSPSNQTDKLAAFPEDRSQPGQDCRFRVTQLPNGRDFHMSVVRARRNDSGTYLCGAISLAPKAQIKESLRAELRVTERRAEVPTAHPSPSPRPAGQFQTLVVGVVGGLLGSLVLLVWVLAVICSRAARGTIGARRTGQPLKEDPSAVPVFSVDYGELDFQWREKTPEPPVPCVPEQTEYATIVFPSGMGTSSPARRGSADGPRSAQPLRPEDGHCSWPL

## hIgG (antibody)
  fluorescence intensity: 7.4
